B1: Cysteine/serine-rich nuclear protein 2 (Homo sapiens), Q9H175 (parent)
chain: MDAFTGSGLKRKFDDVDVGSSVSNSDDEISSSDSADSCDSLNPPTTASFTPTSILKRQKQLRRKNVRFDQVTVYYFARRQGFTSVPSQGGSSLGMAQRHNSVRSYTLCEFAQEQEVNHREILREHLKEEKLHAKKMKLTKNGTVESVEADGLTLDDVSDEDIDVENVEVDDYFFLQPLPTKRRRALLRASGVHRIDAEEKQELRAIRLSREECGCDCRLYCDPEACACSQAGIKCQVDRMSFPCGCSRDGCGNMAGRIEFNPIRVRTHYLHTIMKLELESKRQVSRPAAPDEEPSPTASCSLTGAQGSETQDFQEFIAENETAVMHLQSAEELERLKAEEDSSGSSASLDSSIESLGVCILEEPLAVPEELCPGLTAPILIQAQLPPGSSVLCFTENSDHPTASTVNSPSYLNSGPLVYYQVEQRPVLGVKGEPGTEEGSASFPKEKDLNVFSLPVTSLVACSSTDPAALCKSEVGKTPTLEALLPEDCNPEEPENEDFHPSWSPSSLPFRTDNEEGCGMVKTSQQNEDRPPEDSSLELPLAV
B2: TBC1 domain family member 22B (Homo sapiens), Q9NU19 (parent)
chain: MAAENSKQFWKRSAKLPGSIQPVYGAQHPPLDPRLTKNFIKERSKVNTVPLKNKKASSFHEFARNTSDAWDIGDDEEEDFSSPSFQTLNSKVALATAAQVLENHSKLRVKPERSQSTTSDVPANYKVIKSSSDAQLSRNSSDTCLRNPLHKQQSLPLRPIIPLVARISDQNASGAPPMTVREKTRLEKFRQLLSSQNTDLDELRKCSWPGVPREVRPITWRLLSGYLPANTERRKLTLQRKREEYFGFIEQYYDSRNEEHHQDTYRQIHIDIPRTNPLIPLFQQPLVQEIFERILFIWAIRHPASGYVQGINDLVTPFFVVFLSEYVEEDVENFDVTNLSQDMLRSIEADSFWCMSKLLDGIQDNYTFAQPGIQKKVKALEELVSRIDEQVHNHFRRYEVEYLQFAFRWMNNLLMRELPLRCTIRLWDTYQSEPEGFSHFHLYVCAAFLIKWRKEILDEEDFQGLLMLLQNLPTIHWGNEEIGLLLAEAYRLKYMFADAPNHYRR
partner: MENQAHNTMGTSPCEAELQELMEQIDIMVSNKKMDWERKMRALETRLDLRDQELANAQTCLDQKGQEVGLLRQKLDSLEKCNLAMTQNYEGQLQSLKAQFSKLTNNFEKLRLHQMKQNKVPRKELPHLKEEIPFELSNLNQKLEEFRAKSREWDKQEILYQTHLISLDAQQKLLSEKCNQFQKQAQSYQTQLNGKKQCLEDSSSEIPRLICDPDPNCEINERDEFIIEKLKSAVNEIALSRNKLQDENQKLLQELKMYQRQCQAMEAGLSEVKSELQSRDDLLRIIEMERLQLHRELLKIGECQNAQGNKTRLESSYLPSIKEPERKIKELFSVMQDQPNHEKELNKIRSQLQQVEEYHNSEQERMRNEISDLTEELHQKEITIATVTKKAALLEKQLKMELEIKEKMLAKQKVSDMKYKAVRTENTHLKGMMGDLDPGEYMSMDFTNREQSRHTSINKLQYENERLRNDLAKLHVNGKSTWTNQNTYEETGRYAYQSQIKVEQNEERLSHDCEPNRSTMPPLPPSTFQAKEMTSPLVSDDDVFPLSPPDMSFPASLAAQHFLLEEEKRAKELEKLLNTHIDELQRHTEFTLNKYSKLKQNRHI
B3: Ribosome assembly protein METTL17, mitochondrial (Homo sapiens), Q9H7H0 (parent)
chain: MAAALKCLLTLGRWCPGLGVAPQARALAALVPGVTQVDNKSGFLQKRPHRQHPGILKLPHVRLPQALANGAQLLLLGSAGPTMENQVQTLTSYLWSRHLPVEPEELQRRARHLEKKFLENPDLSQTEEKLRGAVLHALRKTTYHWQELSYTEGLSLVYMAARLDGGFAAVSRAFHEIRARNPAFQPQTLMDFGSGTGSVTWAAHSIWGQSLREYMCVDRSAAMLVLAEKLLKGGSESGEPYIPGVFFRQFLPVSPKVQFDVVVSAFSLSELPSKADRTEVVQTLWRKTGHFLVLVENGTKAGHSLLMDARDLVLKGKEKSPLDPRPGFVFAPCPHELPCPQLTNLACSFSQAYHPIPFSWNKKPKEEKFSMVILARGSPEEAHRWPRITQPVLKRPRHVHCHLCCPDGHMQHAVLTARRHGRDLYRCARVSSWGDLLPVLTPSAFPPSTAQDPSES
partner: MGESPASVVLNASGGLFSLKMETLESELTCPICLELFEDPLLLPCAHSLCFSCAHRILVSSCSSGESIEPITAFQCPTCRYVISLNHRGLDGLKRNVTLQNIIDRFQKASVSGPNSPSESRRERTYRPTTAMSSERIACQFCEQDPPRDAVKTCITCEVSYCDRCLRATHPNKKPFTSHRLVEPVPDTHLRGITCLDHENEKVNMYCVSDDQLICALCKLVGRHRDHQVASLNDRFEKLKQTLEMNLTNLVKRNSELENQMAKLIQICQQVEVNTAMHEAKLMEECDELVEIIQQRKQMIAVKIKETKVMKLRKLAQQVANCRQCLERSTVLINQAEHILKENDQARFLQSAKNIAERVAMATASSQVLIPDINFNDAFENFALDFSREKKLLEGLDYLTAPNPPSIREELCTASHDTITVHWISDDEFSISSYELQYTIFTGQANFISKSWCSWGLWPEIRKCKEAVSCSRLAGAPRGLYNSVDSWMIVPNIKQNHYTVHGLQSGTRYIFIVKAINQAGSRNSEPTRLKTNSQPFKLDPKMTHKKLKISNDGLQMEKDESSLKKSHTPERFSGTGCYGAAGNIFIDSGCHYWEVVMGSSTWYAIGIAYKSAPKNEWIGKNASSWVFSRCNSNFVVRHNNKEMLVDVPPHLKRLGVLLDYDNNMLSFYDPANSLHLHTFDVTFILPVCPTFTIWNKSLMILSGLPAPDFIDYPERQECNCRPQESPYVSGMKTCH
B4: Transmembrane protein 218 (Homo sapiens), A2RU14 (parent)
chain: MAGTVLGVGAGVFILALLWVAVLLLCVLLSRASGAARFSVIFLFFGAVIITSVLLLFPRAGEFPAPEVEVKIVDDFFIGRYVLLAFLSAIFLGGLFLVLIHYVLEPIYAKPLHSY
partner: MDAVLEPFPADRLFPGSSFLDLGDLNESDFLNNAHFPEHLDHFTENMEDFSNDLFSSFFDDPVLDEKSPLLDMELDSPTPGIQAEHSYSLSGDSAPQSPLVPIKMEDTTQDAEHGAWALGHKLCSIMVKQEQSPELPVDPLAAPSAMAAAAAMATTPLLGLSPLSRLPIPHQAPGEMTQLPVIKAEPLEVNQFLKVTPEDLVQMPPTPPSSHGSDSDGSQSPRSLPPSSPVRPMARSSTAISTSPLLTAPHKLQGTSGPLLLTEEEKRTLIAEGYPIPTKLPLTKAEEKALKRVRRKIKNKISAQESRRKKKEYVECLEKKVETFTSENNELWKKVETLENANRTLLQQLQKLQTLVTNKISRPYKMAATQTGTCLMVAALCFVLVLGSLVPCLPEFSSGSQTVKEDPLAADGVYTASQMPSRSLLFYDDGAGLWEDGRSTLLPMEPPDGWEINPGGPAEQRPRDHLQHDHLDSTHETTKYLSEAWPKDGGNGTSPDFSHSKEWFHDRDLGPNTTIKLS
B5: Serine hydroxymethyltransferase, mitochondrial (Homo sapiens), P34897 (parent)
chain: MLYFSLFWAARPLQRCGQLVRMAIRAQHSNAAQTQTGEANRGWTGQESLSDSDPEMWELLQREKDRQCRGLELIASENFCSRAALEALGSCLNNKYSEGYPGKRYYGGAEVVDEIELLCQRRALEAFDLDPAQWGVNVQPYSGSPANLAVYTALLQPHDRIMGLDLPDGGHLTHGYMSDVKRISATSIFFESMPYKLNPKTGLIDYNQLALTARLFRPRLIIAGTSAYARLIDYARMREVCDEVKAHLLADMAHISGLVAAKVIPSPFKHADIVTTTTHKTLRGARSGLIFYRKGVKAVDPKTGREIPYTFEDRINFAVFPSLQGGPHNHAIAAVAVALKQACTPMFREYSLQVLKNARAMADALLERGYSLVSGGTDNHLVLVDLRPKGLDGARAERVLELVSITANKNTCPGDRSAITPGGLRLGAPALTSRQFREDDFRRVVDFIDEGVNIGLEVKSKTAKLQDFKSFLLKDSETSQRLANLRQRVEQFARAFPMPGFDEH
partner: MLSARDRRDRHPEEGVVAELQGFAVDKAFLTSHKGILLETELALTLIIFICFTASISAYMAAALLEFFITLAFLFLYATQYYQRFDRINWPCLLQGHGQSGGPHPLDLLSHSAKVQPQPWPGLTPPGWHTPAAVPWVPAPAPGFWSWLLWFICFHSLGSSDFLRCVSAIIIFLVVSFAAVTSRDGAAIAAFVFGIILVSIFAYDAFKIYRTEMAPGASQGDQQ

The variants in the first assay derive from B1. As to conditions: with pp1g_human PPP1CC.
On to Q382E, for which the “effect of a mutation on the interaction” value is recorded as “with no effect”.

In the next assay the parent is B2. The note with it: with deup1_human DEUP1, Q05D60.
As for A349T, the “effect of a mutation on the interaction” value is listed as “disrupting interaction strength”.

In a further assay the parent is B3. As to conditions: with trim1_human MID2, Q9UJV3.
Consider R212H, for which the “effect of a mutation on the interaction” value is recorded as “disrupting interaction strength”.

The next assay covers variants of B4. As to conditions: with cr3l1_human CREB3L1, Q96BA8.
In the case of P66S, the “effect of a mutation on the interaction” value was “with no effect”.

In a further assay the parent is B5. The note with it: with cklf5_human CMTM5, Q96DZ9.
With V112M, the “effect of a mutation on the interaction” value was “disrupting interaction strength”.
